Data reported in publication PMC12102759.

B1: MXI1 peptide 4-19 (Max-interacting protein 1), 16-mer library wild type / SIN3A PAH2 (SIN3A PAH domain, residues 295-383) (parent)
chain 1: VKMINVQRLLEAAEFL
chain 2: SLQNNQPVEFNHAINYVNKIKNRFQGQPDIYKAFLEILHTYQKEQRNAKEAGGNYTPALTEQEVYAQVARLFKNQEDLLSEFGQFLPDA
B2: ATXN2 peptide 913-928 (Ataxin-2), 16-mer library wild type / PABPC1 PABC (PABPC1 PABC domain, residues 544-623) (parent)
chain 1: TLNPNAKEFNPRSFSQ
chain 2: PLTASMLASAPPQEQKQMLGERLFPLIQAMHPTLAGKITGMLLEIDNSELLHMLESPESLRSKVDEAVAVLQAHQAKEAA
B3: PAIP1 peptide 126-141 (Polyadenylate-binding protein-interacting protein 1), 16-mer library wild type / PABPC1 PABC (PABPC1 PABC domain, residues 544-623) (parent)
chain 1: SKLSVNAPEFYPSGYS
chain 2: B2 chain 2

Variants of: B1
Assay: proteomic peptide phage display deep mutational scan (ProP-PD DMS): M13 P8 16-mer library selected against immobilised GST-tagged bait for four days (rounds), NGS of the eluted pools per day and pseudo-replica
Details: with SIN3A PAH2 (SIN3A PAH domain, residues 295-383); bait immobilised on MaxiSorp plates (10 µg), library pre-cleared on GST, 2 h binding at 4 °C, five washes; one round per day, days 1-4; value from days 2 and 3; keep out of graded; scale: average fractional NGS count over selection days 2 and 3
For chain 1 VKMLNVQRLLEAAEFL [chain 1 I4L], the screen value was 0.00108. Work on chain 1 VKMHNVQRLLEAAEFL [chain 1 I4H] yielded a screen value of 0.000141. chain 1 VKMINVQRLLEAAEFN [chain 1 L16N] showed a screen value of 8.06e-05. Variant chain 1 VKNINVQRLLEAAEFL [chain 1 M3N] has a screen value of 2.4e-05. Work on chain 1 VKMINVQRILEAAEFL [chain 1 L9I] yielded a screen value of 0.00165. In the case of chain 1 VKMINVQRLLEAAQFL [chain 1 E14Q], the screen value is reported as 0.00119. For chain 1 VKMINVQRLLEAARFL [chain 1 E14R], the screen value was 0.00116. chain 1 VKMINVQRLLEAAFFL [chain 1 E14F] showed a screen value of 0.000859. In the case of chain 1 VKMINVQRLLEAAEAL [chain 1 F15A], the screen value is reported as 0.00102. In the case of chain 1 VKMINVQELLEAAEFL [chain 1 R8E], the screen value is reported as 0. chain 1 VSMINVQRLLEAAEFL [chain 1 K2S] gave a screen value of 0.00272. chain 1 VKMINVLRLLEAAEFL [chain 1 Q7L] gave a screen value of 0.000431. chain 1 VRMINVQRLLEAAEFL [chain 1 K2R] showed a screen value of 0.000162. With chain 1 VKMINVQRLLEAFEFL [chain 1 A13F] the screen value was 0.00117. Variant chain 1 VKMINVQRLLEAAGFL [chain 1 E14G] has a screen value of 0.00102. In the case of chain 1 VKMINVQRLLEAAEVL [chain 1 F15V], the screen value is reported as 2.36e-05. chain 1 VKMINVQRLLEAIEFL [chain 1 A13I] was tested, and the screen value was 0.000995. chain 1 VKMIWVQRLLEAAEFL [chain 1 N5W] was tested, and the screen value was 0.00143. With chain 1 VHMINVQRLLEAAEFL [chain 1 K2H] the screen value was 0.00169. In the case of chain 1 VKMINVQRLLEAAIFL [chain 1 E14I], the screen value is reported as 0.00251. In the case of chain 1 VKMINIQRLLEAAEFL [chain 1 V6I], the screen value is reported as 0.000142. For chain 1 VKMINVQRLLEAAEFG [chain 1 L16G], the screen value was 5.21e-05. Work on chain 1 VKMITVQRLLEAAEFL [chain 1 N5T] yielded a screen value of 0.000204. chain 1 VKMINVQRLLEAAVFL [chain 1 E14V] showed a screen value of 0.0112. Work on chain 1 VKMGNVQRLLEAAEFL [chain 1 I4G] yielded a screen value of 4.79e-05. Variant chain 1 VKMINVQVLLEAAEFL [chain 1 R8V] has a screen value of 2.88e-05. chain 1 VKHINVQRLLEAAEFL [chain 1 M3H] showed a screen value of 0.000154. For chain 1 VKMWNVQRLLEAAEFL [chain 1 I4W], the screen value was 8.32e-05. Work on chain 1 VKMIMVQRLLEAAEFL [chain 1 N5M] yielded a screen value of 0.0011. For chain 1 VKMINVQRLLEAAEFD [chain 1 L16D], the screen value was 5.21e-05.

Variants of: B2
Assay: as above
Details: with PABPC1 PABC (PABPC1 PABC domain, residues 544-623); bait immobilised on MaxiSorp plates (10 µg), library pre-cleared on GST, 2 h binding at 4 °C, five washes; one round per day, days 1-4; value from days 2 and 3; scale: average fractional NGS count over selection days 2 and 3
Variant chain 1 TLNPNAKEFGPRSFSQ [chain 1 N10G] has a screen value of 0.000262. In the case of chain 1 TLNPNAKEFNPRMFSQ [chain 1 S13M], the screen value is reported as 0.000163. chain 1 TLNQNAKEFNPRSFSQ [chain 1 P4Q] gave a screen value of 0.000331. In the case of chain 1 TLNPNAKEFNPREFSQ [chain 1 S13E], the screen value is reported as 0.000117. In the case of chain 1 TLNPNPKEFNPRSFSQ [chain 1 A6P], the screen value is reported as 0. chain 1 TLNPNAKEFNPRFFSQ [chain 1 S13F] showed a screen value of 7.96e-05. chain 1 TLNPPAKEFNPRSFSQ [chain 1 N5P] was tested, and the screen value was 1.03e-05. For chain 1 TDNPNAKEFNPRSFSQ [chain 1 L2D], the screen value was 0. Work on chain 1 TLNENAKEFNPRSFSQ [chain 1 P4E] yielded a screen value of 1.57e-05. Work on chain 1 TLNPNAKEFNPRSSSQ [chain 1 F14S] yielded a screen value of 8.48e-05. chain 1 TLNPNAKEFNPRKFSQ [chain 1 S13K] showed a screen value of 0.000149. chain 1 TLNPNAMEFNPRSFSQ [chain 1 K7M] showed a screen value of 3.88e-05. chain 1 ELNPNAKEFNPRSFSQ [chain 1 T1E] gave a screen value of 0.000115. For chain 1 TLNPNAKEFVPRSFSQ [chain 1 N10V], the screen value was 1.03e-05. chain 1 TLNPNAKEFNPRIFSQ [chain 1 S13I] was tested, and the screen value was 0. Work on chain 1 TLNSNAKEFNPRSFSQ [chain 1 P4S] yielded a screen value of 0.000147. In the case of chain 1 TLNPNAKEFNIRSFSQ [chain 1 P11I], the screen value is reported as 9.64e-06. Work on chain 1 TLNPNAKEYNPRSFSQ [chain 1 F9Y] yielded a screen value of 0.000112. For chain 1 TLNANAKEFNPRSFSQ [chain 1 P4A], the screen value was 0.000191. With chain 1 TLNPNAKEFNPRVFSQ [chain 1 S13V] the screen value was 0.000423. chain 1 TLNPNAKEFNPRSFNQ [chain 1 S15N] showed a screen value of 0.000264. chain 1 TLHPNAKEFNPRSFSQ [chain 1 N3H] gave a screen value of 0. With chain 1 TLAPNAKEFNPRSFSQ [chain 1 N3A] the screen value was 0. chain 1 TLNPNAKEQNPRSFSQ [chain 1 F9Q] gave a screen value of 0. For chain 1 TLIPNAKEFNPRSFSQ [chain 1 N3I], the screen value was 0. Variant chain 1 TLNPNAKEFNPRSTSQ [chain 1 F14T] has a screen value of 0.000127. chain 1 TLNPNAKLFNPRSFSQ [chain 1 E8L] was tested, and the screen value was 0. chain 1 QLNPNAKEFNPRSFSQ [chain 1 T1Q] was tested, and the screen value was 0.000237. Variant chain 1 TLNPNAKEFNPRHFSQ [chain 1 S13H] has a screen value of 0.00026. Work on chain 1 SLNPNAKEFNPRSFSQ [chain 1 T1S] yielded a screen value of 0.000147. chain 1 TLNPWAKEFNPRSFSQ [chain 1 N5W] showed a screen value of 0.000157. In the case of chain 1 TLNPNAKEFNPRSDSQ [chain 1 F14D], the screen value is reported as 0.000335. Variant chain 1 TLNPSAKEFNPRSFSQ [chain 1 N5S] has a screen value of 0.000305. chain 1 TLNPNAREFNPRSFSQ [chain 1 K7R] gave a screen value of 0.000217. chain 1 TLKPNAKEFNPRSFSQ [chain 1 N3K] showed a screen value of 0. Variant chain 1 TLTPNAKEFNPRSFSQ [chain 1 N3T] has a screen value of 8.32e-05. Work on chain 1 TLNPNAKEGNPRSFSQ [chain 1 F9G] yielded a screen value of 0. Variant chain 1 TLNPNAKEFEPRSFSQ [chain 1 N10E] has a screen value of 2.66e-05. chain 1 TLNFNAKEFNPRSFSQ [chain 1 P4F] gave a screen value of 0.000109. For chain 1 TLNPYAKEFNPRSFSQ [chain 1 N5Y], the screen value was 0.000372. In the case of chain 1 TLPPNAKEFNPRSFSQ [chain 1 N3P], the screen value is reported as 0. Work on chain 1 TLNPNAKEFNPRSFKQ [chain 1 S15K] yielded a screen value of 0.00027. chain 1 TLNWNAKEFNPRSFSQ [chain 1 P4W] was tested, and the screen value was 0. Variant chain 1 WLNPNAKEFNPRSFSQ [chain 1 T1W] has a screen value of 4.71e-05. chain 1 TLNPNAKDFNPRSFSQ [chain 1 E8D] was tested, and the screen value was 0. chain 1 TLNPNAKEFKPRSFSQ [chain 1 N10K] showed a screen value of 0.000142. Variant chain 1 TLNPNAKEFNPRSFYQ [chain 1 S15Y] has a screen value of 0.000175. chain 1 TLNPNAKEANPRSFSQ [chain 1 F9A] was tested, and the screen value was 0. chain 1 TLNPNAEEFNPRSFSQ [chain 1 K7E] gave a screen value of 0.000169. chain 1 TLNPNAKEFNPRSFTQ [chain 1 S15T] gave a screen value of 2.11e-05. chain 1 TLNYNAKEFNPRSFSQ [chain 1 P4Y] gave a screen value of 0. In the case of chain 1 TLNPNAKIFNPRSFSQ [chain 1 E8I], the screen value is reported as 0.000142. For chain 1 TLNPNAKEFNPRSFLQ [chain 1 S15L], the screen value was 6.16e-05. chain 1 TLNPNIKEFNPRSFSQ [chain 1 A6I] gave a screen value of 0.000105.

Variants of: B3
Assay: as above
Details: with PABPC1 PABC (PABPC1 PABC domain, residues 544-623); bait immobilised on MaxiSorp plates (10 µg), library pre-cleared on GST, 2 h binding at 4 °C, five washes; one round per day, days 1-4; value from days 2 and 3; keep out of graded; scale: average fractional NGS count over selection days 2 and 3
chain 1 SKLSVNGPEFYPSGYS [chain 1 A7G] showed a screen value of 0.000863. chain 1 SKLSVNHPEFYPSGYS [chain 1 A7H] gave a screen value of 0.000147. With chain 1 SKLSVNLPEFYPSGYS [chain 1 A7L] the screen value was 4.17e-05. In the case of chain 1 SKLSVNMPEFYPSGYS [chain 1 A7M], the screen value is reported as 0.000228. With chain 1 SKLSVNNPEFYPSGYS [chain 1 A7N] the screen value was 0.000551. chain 1 SKLSVNPPEFYPSGYS [chain 1 A7P] was tested, and the screen value was 0.000137. Work on chain 1 SKLSVNQPEFYPSGYS [chain 1 A7Q] yielded a screen value of 0.00119. In the case of chain 1 SKLSVNSPEFYPSGYS [chain 1 A7S], the screen value is reported as 0.000407. With chain 1 SKLSVNTPEFYPSGYS [chain 1 A7T] the screen value was 0.00119. Work on chain 1 SKLSVNVPEFYPSGYS [chain 1 A7V] yielded a screen value of 0.000178.
